Measurements published in article PMC6756068, “The NF2 tumor suppressor merlin interacts with Ras and RasGAP, which may modulate Ras signaling” (Oncogene, 2019).

Target: T1, full-length (FL) RasGAP purified from E. coli (UniProt P20936 1-1047)
T1 construct: p120RasGAP (RASA1), full length; also called purified FL RasGAP; source: E. coli, purified
T1 sequence (looked up): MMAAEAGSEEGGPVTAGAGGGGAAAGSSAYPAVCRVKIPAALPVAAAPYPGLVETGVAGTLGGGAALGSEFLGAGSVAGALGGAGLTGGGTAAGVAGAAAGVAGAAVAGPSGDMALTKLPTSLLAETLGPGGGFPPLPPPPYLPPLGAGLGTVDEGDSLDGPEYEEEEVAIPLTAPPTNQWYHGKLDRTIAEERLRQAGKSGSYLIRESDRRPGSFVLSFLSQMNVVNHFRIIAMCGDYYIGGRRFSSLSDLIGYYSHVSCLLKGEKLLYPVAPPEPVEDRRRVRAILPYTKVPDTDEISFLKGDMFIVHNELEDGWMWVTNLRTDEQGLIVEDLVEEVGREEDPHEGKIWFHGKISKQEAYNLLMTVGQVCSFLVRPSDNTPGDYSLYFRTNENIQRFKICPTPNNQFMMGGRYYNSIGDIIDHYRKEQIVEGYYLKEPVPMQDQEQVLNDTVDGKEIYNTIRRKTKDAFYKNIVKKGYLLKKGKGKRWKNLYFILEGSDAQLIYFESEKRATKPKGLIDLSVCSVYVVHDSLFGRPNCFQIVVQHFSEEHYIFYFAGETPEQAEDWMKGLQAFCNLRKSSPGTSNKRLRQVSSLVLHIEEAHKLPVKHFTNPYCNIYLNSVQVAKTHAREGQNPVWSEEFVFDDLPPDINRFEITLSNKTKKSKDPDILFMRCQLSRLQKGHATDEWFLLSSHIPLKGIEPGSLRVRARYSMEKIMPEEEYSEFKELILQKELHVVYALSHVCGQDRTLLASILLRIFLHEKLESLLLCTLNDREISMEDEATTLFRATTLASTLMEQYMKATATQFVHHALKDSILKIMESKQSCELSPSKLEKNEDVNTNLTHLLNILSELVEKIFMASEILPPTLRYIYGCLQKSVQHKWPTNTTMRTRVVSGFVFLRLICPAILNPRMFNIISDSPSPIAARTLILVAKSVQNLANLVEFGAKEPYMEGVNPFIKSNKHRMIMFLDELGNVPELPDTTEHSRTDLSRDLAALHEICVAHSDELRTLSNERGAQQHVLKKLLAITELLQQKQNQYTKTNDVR
Assay: pull-down; GST-merlin fragments pull down FL RasGAP purified from E. coli; western blot
Conditions: both partners purified

B1: GST-merlin aa 1–73 (domain or fragment, UniProt P35240 1-73, looked up)
chain: MAGAIASRMSFSSLKRKQPKTFTVRIVTMDAEMEFNCEMKWKGKDLFDLVCRTLGLRETWFFGLQYTIKDTVA
notes: merlin (NF2), part of the F1 subdomain of the FERM domain, aa 1-73; also called aa 1–73 fragment; part of merlin's F1 subdomain
binding result: binds
